The target of experiment [1] is His-tagged human CD38 (ACRO Biosystems cat #CD8-H5224) (human) (UniProt P28907). Kind of experiment: SPR (Carterra LSA), antibody captured by anti-human Fc, His-tagged CD38 injected.
The target is the same in experiment [2]. The experiment is described as follows: SPR (Carterra LSA), His-CD38 analyte.
For experiment [3], the target named is CD38 on Daudi target cells (UniProt P28907). Kind of experiment: cell-based or functional assay.
Experiment [4] addresses His-tagged human CD38 (ACRO Biosystems CD8-H5224) (human) (UniProt P28907). The experiment is described as follows: SPR (second run), His-tagged CD38.

The Kd is the concentration at which binding is half-saturated. Low values mean tighter binding, high ones weaker binding. For Isa Benchmark (antibody), the Kd in experiment [1] was 5.8 nM. The substance further had a Kd in experiment [2] of 2.69 nM. In experiment [3], this substance had an ADCC EC50 of 12.3 ng/mL, a Max RLU of 3.16e+06 RLU and a PBMC ADCC EC50 of 0.0406 ng/mL. In experiment [4], this substance registered a Kd of 5.8 nM.
Substance Dara Benchmark (antibody) came in with a Kd in experiment [4] of 37.1 nM.
In experiment [3], Daratumumab (benchmark) (antibody) yielded an ADCC EC50 of 68.2 ng/mL, a Lowest Remaining Target % of 57%, a Max RLU of 2.47e+06 RLU and a PBMC ADCC EC50 of 0.0983 ng/mL.
